Test results as given in publication PMC9951844 (Nature Communications, 2023).

B1: YB13-292 Fab (Fab, V domains shown)
VH: EVQLVESGGGLVKPGGSLRLSCAASGFSFITYNMNWVRQAPGKGLEWVSSISSNILSSTSYIYYADSVKGRFTISRDDAANSLFLQMNSLRVEDTAQYYCARTRSRSVRNCTSATCPVDAFDLWGQGTMVIVSS
VL: DIVLTQSPLSLPVTPGEPASISCRSSQSLLRSNGYNYLDWYLQKPGQSPHLLIYLGSNRASGVPDRFSGSGSGTDFTLKISRVEAEDVGVYYCMQALQTPYTFGQGTNLEIK
B2: R1-32 Fab (Fab, V domains shown)
VH: EVQLVESGAEVKKPGSSVKVSCKASGGTFSSYAISWVRQAPGQGLEWMGGIIPILGIANYAQKFQGRVTITADKSTSTAYMELSSLRSEDTAVYYCARENGYSGYGAAANFDLWGRGTLVTVSS
VL: QSVLTQPPSVSGAPGQRVTISCTGSSSNIGAGYDVHWYQQLPGTAPKLLIYGNSNRPSGVPDRFSGSKSGTSASLAITGLQAEDEADYYCQSYDSSLSGSVFGGGTKLTVL
B3: YB9-258 Fab (Fab, V domains shown)
VH: EVQLVESGGGLIQPGGSLRLSCAASGLTVSSNYMHWVRQAPGKGLEWVSVLYAGGSAFYADSVKGRFTISRNNSKNTLYLQMNSLRAEDTAIYYCARGLGDYLDSWGQGTLVTVSS
VL: DIQMTQSPSSVSASVGDRVTITCRASQGIGSWLAWYQQKPGKAPQLLIYAASTLQSGVPPRFSGSGSGTDFTLTITSLQPEDFASYYCQQANSVLALTFGGGTKVEIK

Legend:
S-R/6P/Omicron BA.1 = S-R/6P/Omicron BA.1 (SARS-CoV-2 Omicron BA.1 (B.1.1.529), S371L | S373P | S375F | K417N | A484 | proline substitution at residue 817 | …); assay: cryo-EM structure; details: both partners purified
S-GSAS/6P/Wildtype = S-GSAS/6P/Wildtype (SARS-CoV-2 hCoV-19/Wuhan/WIV04/2019, UniProt P0DTC2, proline substitution at residue 817 | proline substitution at residue 892 | …); assay: cryo-EM structure; details: both partners purified

Binder | stoichiometry N (S-R/6P/Omicron BA.1) | stoichiometry N (S-GSAS/6P/Wildtype)
B1 | 3 Fabs per spike trimer (3:3 protomer:Fab) | –
B2 | – | 3 Fabs per spike trimer (3:3:3)
B3 | – | 3 Fabs per spike trimer (3:3:3)
